How the values were obtained:
Assay type in all cases: in vivo
Conditions in all cases: 7 DAT, number of plants of 24 per genotype, grades
[1] = system: Arabidopsis thaliana T1 plants; assay: oxyfluorfen tolerance of transgenic Arabidopsis thaliana T1 plants (spray, grade of pesticide damage)
Text: (§1) The transformed Arabidopsis thaliana T1 plants were initially selected using glufosinate herbicide. The Arabidopsis thaliana T1 plants (PPO1A) into which the PPO1A nucleotide sequence was introduced, the Arabidopsis thaliana T1 plants (PPO2A) into which the PPO2A nucleotide sequence was introduced, the Arabidopsis thaliana T1 plants (PPO3A) into which the PPO3A nucleotide sequence was introduced, the Arabidopsis thaliana T1 plants (PPO4A) into which the PPO4A nucleotide sequence was introduced, the Arabidopsis thaliana T1 plants (PPO5A) into which the PPO5A nucleotide sequence was introduced, the Arabidopsis thaliana T1 plants (PPO6A) into which the PPO6A nucleotide sequence was introduced, the Arabidopsis thaliana T1 plants (PPO7A) into which the PPO7A nucleotide sequence was introduced, the Arabidopsis thaliana T1 plants (PPO8A) into which the PPO8A nucleotide sequence was introduced, the Arabidopsis thaliana T1 plants (PPO9A) into which the PPO9A nucleotide sequence was introduced, the Arabidopsis thaliana T1 plants (PPO10A) into which the […] nucleotide sequence was introduced, the Arabidopsis thaliana T1 plants (PPO11A) into which the PPO11A nucleotide sequence was introduced, the Arabidopsis thaliana T1 plants (PPO12A) into which the PPO12A nucleotide sequence was introduced, the Arabidopsis thaliana T1 plants (PPO13A) into which the PPO13A nucleotide sequence was introduced, the Arabidopsis thaliana T1 plants (PPO14A) into which the PPO14A nucleotide sequence was introduced, the Arabidopsis thaliana T1 plants (PPO-ATA) into which the PPO-ATA nucleotide sequence was introduced, the Arabidopsis thaliana T1 plants (PPO-APA) into which the PPO-APA nucleotide sequence was introduced, the Arabidopsis thaliana T1 plants (control vector) into which the control vector was introduced, and the wild-type Arabidopsis thaliana plants (CK) (with 24 plants being included in each genotype) (18 days after sowing) were sprayed with oxyfluorfen at three concentrations (180 g ai/ha (one-fold field concentration, 1×), 720 g ai/ha (four-fold field concentration, 4×), and 0 g ai/ha (water, 0×)), saflufenacil at three concentrations (25 g ai/ha (one-fold field concentration, 1×), 100 g ai/ha (four-fold field concentration, 4×), and 0 g ai/ha (water, 0×)), flumioxazin at three concentrations (60 g ai/ha (one-fold field concentration, 1×), 240 g ai/ha (four-fold field concentration, 4×), and 0 g ai/ha (water, 0×), and sulfentrazone at three concentrations (450 g ai/ha (one-fold field concentration, 1×), 900 g ai/ha (two-fold field concentration, 2×), and 0 g ai/ha (water, 0×) to determine the tolerance of Arabidopsis thaliana to the herbicides. After 7 days of spraying (7 DAT), the damage level of each plant caused by the herbicide was evaluated according to the average of the damage levels (%) of plants (the average of the damage levels (%) of plants=the injured leaf area/the total leaf area×[…]), i.e., the grade of pesticide damage: grade 0 means that the growth status of plants is essentially consistent with those sprayed with the blank solvent (water); grade 1 means that the average of the damage levels of plants is less than 10%; grade 2 means that the average of the damage levels of plants is greater than […]; and grade 3 means that the average of the damage levels of plants is 100%. The plants having a growth status falling within grades 0 and 1 are classified as highly resistant plants; those having a growth status falling within grade 2 are classified as poorly resistant plants; and those having a growth status falling within grade 3 are classified as non-resistant plants.

[2] = system: Arabidopsis thaliana T1 plants; assay: saflufenacil tolerance of transgenic Arabidopsis thaliana T1 plants (spray, grade of pesticide damage)
Text: as §1

[3] = system: Arabidopsis thaliana T1 plants; assay: flumioxazin tolerance of transgenic Arabidopsis thaliana T1 plants (spray, grade of pesticide damage)
Text: as §1

[4] = system: Arabidopsis thaliana T1 plants; assay: sulfentrazone tolerance of transgenic Arabidopsis thaliana T1 plants (spray, grade of pesticide damage)
Text: as §1

Molecule | The grade of pesticide damage/plant: grade 0 ([1]; oxyfluorfen 180 g ai/ha (1×)) [plant] | The grade of pesticide damage/plant: grade 1 ([1]; oxyfluorfen 180 g ai/ha (1×)) [plant] | The grade of pesticide damage/plant: grade 2 ([1]; oxyfluorfen 180 g ai/ha (1×)) [plant] | The grade of pesticide damage/plant: grade 3 ([1]; oxyfluorfen 180 g ai/ha (1×)) [plant] | The grade of pesticide damage/plant: grade 0 ([1]; oxyfluorfen 720 g ai/ha (4×)) [plant] | The grade of pesticide damage/plant: grade 1 ([1]; oxyfluorfen 720 g ai/ha (4×)) [plant] | The grade of pesticide damage/plant: grade 2 ([1]; oxyfluorfen 720 g ai/ha (4×)) [plant] | The grade of pesticide damage/plant: grade 3 ([1]; oxyfluorfen 720 g ai/ha (4×)) [plant] | The grade of pesticide damage/plant: grade 0 ([2]; saflufenacil 25 g ai/ha (1×)) [plant] | The grade of pesticide damage/plant: grade 1 ([2]; saflufenacil 25 g ai/ha (1×)) [plant] | The grade of pesticide damage/plant: grade 2 ([2]; saflufenacil 25 g ai/ha (1×)) [plant] | The grade of pesticide damage/plant: grade 3 ([2]; saflufenacil 25 g ai/ha (1×)) [plant] | The grade of pesticide damage/plant: grade 0 ([2]; saflufenacil 100 g ai/ha (4×)) [plant] | The grade of pesticide damage/plant: grade 1 ([2]; saflufenacil 100 g ai/ha (4×)) [plant] | The grade of pesticide damage/plant: grade 2 ([2]; saflufenacil 100 g ai/ha (4×)) [plant] | The grade of pesticide damage/plant: grade 3 ([2]; saflufenacil 100 g ai/ha (4×)) [plant] | The grade of pesticide damage/plant: grade 0 ([3]; flumioxazin 60 g ai/ha (1×)) [plant] | The grade of pesticide damage/plant: grade 1 ([3]; flumioxazin 60 g ai/ha (1×)) [plant] | The grade of pesticide damage/plant: grade 2 ([3]; flumioxazin 60 g ai/ha (1×)) [plant] | The grade of pesticide damage/plant: grade 3 ([3]; flumioxazin 60 g ai/ha (1×)) [plant] | also measured
PPO4A: nucleotide sequence encoding microbial protoporphyrinogen oxidase PPO4 (SEQ ID NO:4), Arabidopsis thaliana/soybean common codon usage bias (nucleic acid, PPO4A Nucleotide Sequence) DNA: ATGAAAACCCTGATTCTTTACAGCAGTCATGATGGACAGACCAAGAAAATCTCAGAGTTCCTTACGGCGTTGTTGAATGGCGAAGTTCTAGTTGATGCTCTACGTGAAGATTATGATATTGAAACATTTGACCAAGTTATAATCGGAGCTTCCATAAGGTATGGTCACTTTTCTAAGACTTTAGACAGATTTGTGGTGAGAAACAGGGTACATCTGGAACAAAAACGAGCAGTATTCTTCTCTGTTAACTTAACTGCCCGAAAAGAAGGTAAAGACAATCCTGAAACTAATGTCTATGTCAGAAAGTTTCTCCAGAGAACAAAATGGCAACCAAAACTTGCTGCCGTCTTCGCAGGTGCACTCTTGTACCCGAGATATAAGTGGTTTGATCGTGTGATGATTCGGTTTATCATGAAGATTACTGGGGGAGAGACGGATATAACAAAGGAGATTGAGTACACAGATTGGGAAAAGGTTAGGGAGTTCGCTCAGAGAATCAACCGCCTTGAGAAATGA | 24 | 0 | 0 | 0 | 22 | 2 | 0 | 0 | 24 | 0 | 0 | 0 | 4 | 20 | 0 | 0 | 24 | 0 | 0 | 0 | The grade of pesticide damage/plant: grade 0 ([3]; flumioxazin 240 g ai/ha (4×)): 22 plant; The grade of pesticide damage/plant: grade 1 ([3]; flumioxazin 240 g ai/ha (4×)): 2 plant; The grade of pesticide damage/plant: grade 2 ([3]; flumioxazin 240 g ai/ha (4×)): 0 plant; The grade of pesticide damage/plant: grade 3 ([3]; flumioxazin 240 g ai/ha (4×)): 0 plant; The grade of pesticide: grade 0 ([4]; sulfentrazone 450 g ai/ha (1×)): 24; The grade of pesticide: grade 1 ([4]; sulfentrazone 450 g ai/ha (1×)): 0; The grade of pesticide: grade 2 ([4]; sulfentrazone 450 g ai/ha (1×)): 0; The grade of pesticide: grade 3 ([4]; sulfentrazone 450 g ai/ha (1×)): 0; The grade of pesticide: grade 0 ([4]; sulfentrazone 900 g ai/ha (2×)): 18; The grade of pesticide: grade 1 ([4]; sulfentrazone 900 g ai/ha (2×)): 6; The grade of pesticide: grade 2 ([4]; sulfentrazone 900 g ai/ha (2×)): 0; The grade of pesticide: grade 3 ([4]; sulfentrazone 900 g ai/ha (2×)): 0
PPO3A: nucleotide sequence encoding microbial protoporphyrinogen oxidase PPO3 (SEQ ID NO:3), Arabidopsis thaliana/soybean common codon usage bias (nucleic acid, PPO3A Nucleotide Sequence) DNA: ATGAGTGCCCTGTTGTTGTATTGTTCAACTGATGGTCAAACCAAGAAGATAATGACACAGATAGCTAATGAACTGAGACAACATGGTTATGAATGTGATGTGCGGGATCTTACTTCTGTTCAACAAAATCTCAATCTTTCAGCTTACAACAAAGTTTTGGTAGGAGCTTCCATAAGATATGGATACTTCAATAAAGCACTTGACAAGTTCATCACGAGGCACCTCTCTCAGTTAAACAACATGCCTTCTGCTTTCTTTGGTGTCAATTTGACTGCAAGAAAAGAAGAGAAGAGCACTCCCGAAACAAACAGTTACATCTGCAAGTTTCTAGACAAAACACCATGGAAACCAACCTTAACTGGAGTCTTCGCCGGGGCGCTTTTTTATCCTCGTTACAAATGGATTGATCGAGTGATGATTCAGCTTATCATGAAGATGACTAAAGGAGAAACCGATCCGACAAAAGAGATTGAGTATACAGATTGGAACAAGGTTTCGGAGTTTGCTACGAATTTTGCAAAGATTGGCTGA | 24 | 0 | 0 | 0 | 20 | 4 | 0 | 0 | 24 | 0 | 0 | 0 | 2 | 22 | 0 | 0 | 24 | 0 | 0 | 0 | The grade of pesticide damage/plant: grade 0 ([3]; flumioxazin 240 g ai/ha (4×)): 24 plant; The grade of pesticide damage/plant: grade 1 ([3]; flumioxazin 240 g ai/ha (4×)): 0 plant; The grade of pesticide damage/plant: grade 2 ([3]; flumioxazin 240 g ai/ha (4×)): 0 plant; The grade of pesticide damage/plant: grade 3 ([3]; flumioxazin 240 g ai/ha (4×)): 0 plant; The grade of pesticide: grade 0 ([4]; sulfentrazone 450 g ai/ha (1×)): 24; The grade of pesticide: grade 1 ([4]; sulfentrazone 450 g ai/ha (1×)): 0; The grade of pesticide: grade 2 ([4]; sulfentrazone 450 g ai/ha (1×)): 0; The grade of pesticide: grade 3 ([4]; sulfentrazone 450 g ai/ha (1×)): 0; The grade of pesticide: grade 0 ([4]; sulfentrazone 900 g ai/ha (2×)): 20; The grade of pesticide: grade 1 ([4]; sulfentrazone 900 g ai/ha (2×)): 4; The grade of pesticide: grade 2 ([4]; sulfentrazone 900 g ai/ha (2×)): 0; The grade of pesticide: grade 3 ([4]; sulfentrazone 900 g ai/ha (2×)): 0

Reference: patent US20240200091A1, “USE OF PROTOPORPHYRINOGEN OXIDASE” (BEIJING DABEINONG BIOTECHNOLOGY CO., LTD., priority 2021, published 2024)
